{
  "source": "paper PMC2697266",
  "molecular_target": "H3_(1-15)K4me3 peptide with an added C-terminal Tyr (UniProt P68431)",
  "test": "ITC",
  "data": [
    {"substance": "Recombinant JARID1A_(PHD3) protein used for calorimetry (domain or fragment)", "values": [
      {"measurement": "Kd", "value": 750, "unit": "nM"}
    ]}
  ]
}
